The target in this assay is Acanthamoeba actin (Acanthamoeba). The assay can be described thus: co-sedimentation.

Acanthamoeba actin (natural protein): the percent of soluble G-actin converted into an insoluble form is greater than 95%.

The values are drawn from PMC2111966.
